B1: aPSMA:Rev1:Rev2 (aPSMA-AuNPs-Aggregate) (structured_DNA)
DNA 1: CTGTGACTCATCTGTGAAGGGCGGCGTTTTCGCTTTTGCGTTTTGGGTCATCTGCTTACGATAGCAATGCT
DNA 2: CACAGATGAGTCACAG
DNA 3: AAAACGCCGCCCTT
modifications: Rev1 3' C3 thiol; Rev2 5' C6 thiol
B2: Control:Rev1:Rev2 (C-AuNPs-Aggregate) (structured_DNA)
DNA 1: CTGTGACTCATCTGTGAAGGGCGGCGTTTTATATGTTACCGTCTAAGTACTCTGTTCCGCGCCGTGTGTTG
DNA 2: CACAGATGAGTCACAG
DNA 3: AAAACGCCGCCCTT
modifications: Rev1 3' C3 thiol; Rev2 5' C6 thiol

How the values were obtained:
[1] = biological target: T1, hrPSMA (human recombinant Prostate Specific Membrane Antigen, Sinobiological) (human, UniProt Q04609 44-750); test: AuNP aggregate disassembly (DLS size and count rate, plasmon shift); size change significant above 50 pM, count rate from 500 fM; detection thresholds, not Kd; 1x PBS pH 7.4; 37 C for 30 min stated for the initial 50 pM hrPSMA screening; conditions: protein: commercial; chain copies: 2; label: 13 nm gold nanoparticles on Rev1 and Rev2; aPSMA 1-16 paired with Rev1, 17-30 with Rev2; 3' aptamer portion single-stranded; many copies per aggregate
T1 sequence (Q04609 44-750): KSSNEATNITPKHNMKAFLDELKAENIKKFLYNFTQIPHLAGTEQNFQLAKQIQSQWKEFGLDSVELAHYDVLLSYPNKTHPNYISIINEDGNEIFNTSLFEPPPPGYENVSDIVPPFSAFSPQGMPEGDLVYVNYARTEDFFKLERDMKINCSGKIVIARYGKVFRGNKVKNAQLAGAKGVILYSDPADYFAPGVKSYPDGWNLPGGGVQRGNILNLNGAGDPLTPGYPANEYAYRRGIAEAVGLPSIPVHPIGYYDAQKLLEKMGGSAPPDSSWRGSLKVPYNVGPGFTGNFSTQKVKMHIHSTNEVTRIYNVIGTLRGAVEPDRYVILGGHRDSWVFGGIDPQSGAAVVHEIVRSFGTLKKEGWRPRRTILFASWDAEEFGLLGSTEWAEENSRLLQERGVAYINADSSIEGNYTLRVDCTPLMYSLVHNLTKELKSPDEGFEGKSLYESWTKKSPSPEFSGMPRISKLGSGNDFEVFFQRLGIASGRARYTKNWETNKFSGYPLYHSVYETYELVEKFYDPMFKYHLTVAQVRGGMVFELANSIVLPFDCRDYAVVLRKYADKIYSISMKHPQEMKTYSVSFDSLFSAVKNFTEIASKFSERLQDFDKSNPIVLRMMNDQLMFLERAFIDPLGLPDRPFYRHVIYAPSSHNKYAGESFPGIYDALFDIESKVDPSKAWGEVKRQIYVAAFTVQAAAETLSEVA

[2] = biological target: PSMA on intact LNCaP SEVs (human? (LNCaP cells), UniProt Q04609 1-750); test: AuNP aggregate disassembly (plasmon peak shift); intact SEVs; 1x PBS pH 7.4; 37 C for 30 min stated for the initial 50 pM hrPSMA screening; conditions: protein: native; chain copies: 2; label: 13 nm gold nanoparticles on Rev1 and Rev2; Control 1-16 paired with Rev1, 17-30 with Rev2; 3' portion single-stranded; many copies per aggregate
Sequence of PSMA on intact LNCaP SEVs (Q04609 whole entry): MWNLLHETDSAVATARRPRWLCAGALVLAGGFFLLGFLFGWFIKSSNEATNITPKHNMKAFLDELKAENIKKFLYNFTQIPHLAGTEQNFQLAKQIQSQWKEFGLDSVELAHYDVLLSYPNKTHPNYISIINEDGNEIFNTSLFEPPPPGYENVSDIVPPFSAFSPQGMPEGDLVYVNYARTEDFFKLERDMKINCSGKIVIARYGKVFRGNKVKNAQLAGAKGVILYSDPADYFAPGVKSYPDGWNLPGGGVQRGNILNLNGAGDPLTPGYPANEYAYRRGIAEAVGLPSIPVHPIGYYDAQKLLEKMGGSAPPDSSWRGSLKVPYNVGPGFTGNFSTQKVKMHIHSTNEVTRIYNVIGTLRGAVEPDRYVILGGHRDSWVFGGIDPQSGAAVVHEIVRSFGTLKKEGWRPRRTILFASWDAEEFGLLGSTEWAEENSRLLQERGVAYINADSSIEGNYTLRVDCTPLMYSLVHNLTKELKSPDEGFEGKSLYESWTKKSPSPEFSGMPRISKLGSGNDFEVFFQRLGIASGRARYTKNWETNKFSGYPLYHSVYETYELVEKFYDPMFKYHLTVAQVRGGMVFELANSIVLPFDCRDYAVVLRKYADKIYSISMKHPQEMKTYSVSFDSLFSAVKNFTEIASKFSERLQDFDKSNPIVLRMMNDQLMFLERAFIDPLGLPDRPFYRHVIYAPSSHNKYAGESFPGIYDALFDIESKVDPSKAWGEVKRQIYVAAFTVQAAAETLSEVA

[3] = biological target: T1, hrPSMA (human recombinant Prostate …); test: AuNP aggregate disassembly (DLS); hrPSMA series; no significant trend; 1x PBS pH 7.4; 37 C for 30 min stated for the initial 50 pM hrPSMA screening; conditions: protein: commercial; chain copies: 2; label: 13 nm gold nanoparticles on Rev1 and Rev2; Control 1-16 paired with Rev1, 17-30 with Rev2; 3' portion single-stranded; many copies per aggregate

Row | Binder | binding result [1] | binding result [2] | binding result [3]
1 | B1 | binds | – | –
2 | B2 | – | no binding | no binding

Reference: paper PMC10651859, “Aptamer-based gold nanoparticle aggregates for ultrasensitive amplification-free detection of PSMA”
